In publication PMC13043311, “2′-O-Methyl-guanosine RNA fragments antagonize TLR7 and TLR8 to limit autoimmunity”:

Columns and labels:
[1] = target: T1, TLR7 WT (mmTLR7) (Macaca mulatta, UniProt B3Y653 27-839); assay: SPR; control of the nucleoside series; mean computed from runs 1±0.3, 3±0.9, 5±0.8; SPR with recombinant TLR7/TLR8; buffer, pH and temperature not in the material; details: protein: recombinant; chain copies: 2; single-stranded
T1 sequence: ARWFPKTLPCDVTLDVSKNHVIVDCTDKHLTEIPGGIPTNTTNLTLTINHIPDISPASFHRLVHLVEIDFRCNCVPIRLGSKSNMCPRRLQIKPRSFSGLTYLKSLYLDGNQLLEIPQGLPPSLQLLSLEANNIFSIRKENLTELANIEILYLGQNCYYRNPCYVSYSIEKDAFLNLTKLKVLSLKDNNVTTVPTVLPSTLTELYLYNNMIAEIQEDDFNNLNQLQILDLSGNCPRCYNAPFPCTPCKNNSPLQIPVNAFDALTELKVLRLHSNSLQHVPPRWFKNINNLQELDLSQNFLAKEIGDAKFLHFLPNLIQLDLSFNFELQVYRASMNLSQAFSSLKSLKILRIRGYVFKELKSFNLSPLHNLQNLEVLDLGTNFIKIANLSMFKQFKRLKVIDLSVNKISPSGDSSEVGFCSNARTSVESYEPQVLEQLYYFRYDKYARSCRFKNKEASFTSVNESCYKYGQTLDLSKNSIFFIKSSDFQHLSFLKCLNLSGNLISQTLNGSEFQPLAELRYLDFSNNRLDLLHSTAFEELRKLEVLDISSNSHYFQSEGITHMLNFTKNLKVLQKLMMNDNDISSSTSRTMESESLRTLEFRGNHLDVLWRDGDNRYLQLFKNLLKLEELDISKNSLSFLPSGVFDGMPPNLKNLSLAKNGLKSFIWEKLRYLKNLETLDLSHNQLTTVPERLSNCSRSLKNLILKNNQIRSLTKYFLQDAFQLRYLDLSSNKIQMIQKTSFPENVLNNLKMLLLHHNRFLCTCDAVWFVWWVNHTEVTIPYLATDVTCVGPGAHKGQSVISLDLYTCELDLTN

[2] = target: T1, TLR7 WT (mmTLR7); assay: SPR; mean computed from runs 0.9±0.3, 2±0.5, 1.4±0.6; SPR with recombinant TLR7/TLR8; buffer, pH and temperature not in the material; details: protein: recombinant; chain copies: 2; single-stranded

GUC (XNA, 2'-OMe G1, RNA U2 C3; phosphorothioate linkages) [mGrUrC PS] was tested, and the Kd [1] was 3000 nM and the Kd [2] was 1430 nM.
